Experimental findings from US20240150495A1 are described below.

For assay [1], the target named is human ανβ3 integrin (Chemicon) (human) (UniProt P06756). The experiment in a line: ELISA on coated human ανβ3 integrin (1 ug/ml), binder at 2.500 µg/ml; positive control. On the technique in general: An ELISA detects its analyte on a solid surface through an enzyme-linked reagent.
Assay [2] has the same target. The experiment in a line: ELISA on coated human ανβ3 integrin (1 ug/ml), binder at 0.156 µg/ml; positive control.
The target is the same in assay [3]. The assay is described as follows: ELISA on coated human ανβ3 integrin (1 ug/ml), binder at 0.002 µg/ml; positive control.
The target is the same in assay [4]. The experiment in a line: ELISA on coated human ανβ3 integrin (1 ug/ml), binder at 10 µg/ml; positive control.
Assay [5] shares this target. The assay is described as follows: ELISA on coated human ανβ3 integrin (1 ug/ml), binder at 0.625 µg/ml; positive control.
Assay [6] has the same target. The assay is described as follows: ELISA on coated human ανβ3 integrin (1 ug/ml), binder at 0.010 µg/ml; positive control.
Assay [7] has the same target. The assay is described as follows: ELISA on coated human ανβ3 integrin (1 ug/ml), binder at 0.039 µg/ml; positive control.

Sequence of human ανβ3 integrin (Chemicon) (human) (P06756 31-1048 limits assumed, chain 1 of 2): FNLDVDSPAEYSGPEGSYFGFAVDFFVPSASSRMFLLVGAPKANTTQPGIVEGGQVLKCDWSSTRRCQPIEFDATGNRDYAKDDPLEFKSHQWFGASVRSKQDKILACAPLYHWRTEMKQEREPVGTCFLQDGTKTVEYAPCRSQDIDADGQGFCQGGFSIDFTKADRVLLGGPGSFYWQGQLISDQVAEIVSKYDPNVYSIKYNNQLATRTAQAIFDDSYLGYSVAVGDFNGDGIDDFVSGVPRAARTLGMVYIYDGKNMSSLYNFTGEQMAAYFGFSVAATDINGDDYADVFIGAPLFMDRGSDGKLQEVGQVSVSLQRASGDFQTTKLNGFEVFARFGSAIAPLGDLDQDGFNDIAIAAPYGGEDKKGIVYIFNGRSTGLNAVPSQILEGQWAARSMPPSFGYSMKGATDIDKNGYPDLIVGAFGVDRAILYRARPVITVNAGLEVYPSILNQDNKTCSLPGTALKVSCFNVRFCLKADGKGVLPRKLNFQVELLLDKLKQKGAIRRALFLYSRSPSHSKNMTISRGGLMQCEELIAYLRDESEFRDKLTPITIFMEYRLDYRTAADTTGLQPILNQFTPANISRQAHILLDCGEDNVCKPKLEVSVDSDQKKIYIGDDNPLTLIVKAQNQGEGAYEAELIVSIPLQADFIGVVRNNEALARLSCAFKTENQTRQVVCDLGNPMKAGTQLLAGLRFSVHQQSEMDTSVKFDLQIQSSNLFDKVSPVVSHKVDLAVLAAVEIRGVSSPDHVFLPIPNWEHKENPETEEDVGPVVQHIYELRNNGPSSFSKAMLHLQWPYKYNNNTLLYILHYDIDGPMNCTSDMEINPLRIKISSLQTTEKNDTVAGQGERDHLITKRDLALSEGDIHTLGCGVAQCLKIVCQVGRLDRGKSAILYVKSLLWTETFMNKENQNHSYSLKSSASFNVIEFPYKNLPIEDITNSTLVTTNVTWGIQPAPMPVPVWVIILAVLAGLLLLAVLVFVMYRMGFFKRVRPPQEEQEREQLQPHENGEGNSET
Sequence of human ανβ3 integrin (Chemicon) (human) (P05106 27-788 limits assumed, chain 2 of 2, further chain): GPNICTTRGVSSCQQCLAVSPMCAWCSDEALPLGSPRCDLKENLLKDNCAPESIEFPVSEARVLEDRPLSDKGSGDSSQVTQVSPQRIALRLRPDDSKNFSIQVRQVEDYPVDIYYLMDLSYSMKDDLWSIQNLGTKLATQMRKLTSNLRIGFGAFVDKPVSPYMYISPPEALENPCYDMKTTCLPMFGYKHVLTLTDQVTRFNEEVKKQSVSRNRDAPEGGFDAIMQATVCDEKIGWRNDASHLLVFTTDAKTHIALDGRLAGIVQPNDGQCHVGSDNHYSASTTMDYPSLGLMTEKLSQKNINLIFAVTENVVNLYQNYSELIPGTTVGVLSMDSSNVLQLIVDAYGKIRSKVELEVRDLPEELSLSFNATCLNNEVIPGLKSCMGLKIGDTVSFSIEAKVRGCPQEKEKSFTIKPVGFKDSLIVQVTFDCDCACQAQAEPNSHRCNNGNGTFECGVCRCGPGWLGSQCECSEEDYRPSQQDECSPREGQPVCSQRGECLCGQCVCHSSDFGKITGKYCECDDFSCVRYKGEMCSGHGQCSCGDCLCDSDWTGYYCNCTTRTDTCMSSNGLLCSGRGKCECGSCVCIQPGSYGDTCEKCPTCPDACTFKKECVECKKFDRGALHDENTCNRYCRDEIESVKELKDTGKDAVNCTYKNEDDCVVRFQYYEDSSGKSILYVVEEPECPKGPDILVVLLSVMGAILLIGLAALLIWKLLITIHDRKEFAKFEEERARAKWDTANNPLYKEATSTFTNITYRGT

“commercial mouse anti human ανβ3 integrin mAb LM609 (Chemicon) (antibody)”: the OD 450 was found to be 0.644 OD 450 in assay [1]; 0.626 OD 450 in assay [2]; 0.077 OD 450 in assay [3]; 0.647 OD 450 in assay [4]; 0.657 OD 450 in assay [5]; 0.157 OD 450 in assay [6]. This substance also yielded an OD 450 in assay [7] of 0.391 OD 450.
